Laboratory results published in the supplement of paper PMC7877785.
± gives the uncertainty stated by the source.

Experiment: self-splicing fitness, log relative to wild type (ln ratio); higher = more splicing; Tetrahymena group I intron in knt gene, E. coli kanamycin selection, DiMSum; sequences stand for … in CUCUCU…GGAGGGAAAAGUUAUCAGGCAUGCACCUGGUAGCUAGUCUUUAAACCAAUAGAUUGCAUCGGUUUAAAAGGCAAGACCGUCAAAUUGCGGGAAAGGGGUCAACAGCCGUUCAGUACCAAGUCUCAGGGGAAACUUUGAGAUGGCCUUGCAAAGGGUAUGGUAAUAAGCUGACGGACAUGGUCCUAACCACGCAGCCAAGUCCUAAGUCAACAGAUCUUCUGUUGAUAUGGAUGCAGUUCACAGACUAAAUGUCGGUCGGGGAAGAUGUAUUCUUCUCAUAAGAUAUAGUCGGACCUCUCCUUAAUGGGAGCUAGCGGAUGAAGUGAUGCAACACUGGAGCCGCUGGGAACUAAUUUGUAUGCGAAAGUAUAUUGAUUAGUUUUGGAGUACUCGUGGUCG
In short: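 Library with all eight P1ex-region intron nucleotides randomised, intron inside the knt kanamycin-resistance gene on pET-22b(+), in E. coli BL21(DE3). Cells grew overnight at 37°C or 30°C on LB agar with or without 25 μg/mL kanamycin (plus 100 μg/mL carbenicillin, 50 μM IPTG, 0.2% rhamnose), in six replicate transformations. Pooled colonies were amplicon-sequenced on Illumina HiSeq 2500. DiMSum fitness is the error-weighted combination of wild-type-normalised replicate fold changes, kanamycin versus none.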

Sequence | self-splicing fitness (ln) (30 °C) | self-splicing fitness (ln) (37 °C)
UCUCAGCAAUAUUACGUUUU | -3.4 ± 0.15 | -3.25 ± 0.21
ACUCAGCAAUAUUACGAGGG | -1.85 ± 0.08 | -1.41 ± 0.1
AAUUAGCAAUAUUACGUGCG | -0.879 ± 0.12 | -0.209 ± 0.14
GGCCAGCAAUAUUACGUACA | -2.75 ± 0.17 | -1.71 ± 0.15
AAGUAGCAAUAUUACGUGAC | -2.41 ± 0.19 | -1.85 ± 0.4
CUUCAGCAAUAUUACGAGGC | -4.72 ± 0.41 | -1.59 ± 0.4
GUUGAGCAAUAUUACGCAGU | – | -1.25 ± 0.4
GAUUAGCAAUAUUACGACUG | -0.181 ± 0.12 | -0.313 ± 0.14
UCACAGCAAUAUUACGGCAG | -2.03 ± 0.12 | -0.996 ± 0.16
CAAUAGCAAUAUUACGGACU | -4.49 ± 0.34 | -2.11 ± 0.23
CGAUAGCAAUAUUACGACGU | -0.903 ± 0.065 | 0.0313 ± 0.07
CGUCAGCAAUAUUACGAGUA | -2.55 ± 0.28 | -2.69 ± 0.39
UACCAGCAAUAUUACGGGUA | -3.45 ± 0.14 | -3.02 ± 0.15
AAGAAGCAAUAUUACGCCUG | -0.11 ± 0.11 | -0.509 ± 0.14
ACGUAGCAAUAUUACGUAUG | -2.75 ± 0.18 | -3.33 ± 0.42
ACUAAGCAAUAUUACGAUCA | -1.15 ± 0.072 | -0.58 ± 0.073
UAGGAGCAAUAUUACGAAGC | -4.41 ± 0.33 | -1.44 ± 0.26
UUCUAGCAAUAUUACGGGGC | -3.22 ± 0.32 | -2.02 ± 0.26
AUUUAGCAAUAUUACGGUUG | -2.68 ± 0.39 | –
ACUCAGCAAUAUUACGGAGA | -0.941 ± 0.12 | -0.997 ± 0.13
AUGUAGCAAUAUUACGCUGG | -3.03 ± 0.14 | -1.92 ± 0.16
GUCAAGCAAUAUUACGGUUA | -2.2 ± 0.14 | -0.972 ± 0.1
CCUUAGCAAUAUUACGUCGU | -3.7 ± 0.25 | -2.13 ± 0.22
CUGUAGCAAUAUUACGAGAC | -2.77 ± 0.2 | -0.769 ± 0.14

Sequence | self-splicing fitness (ln) (30 °C) | self-splicing fitness (ln) (37 °C)
CAAGAGCAAUAUUACGUAGU | -3.51 ± 0.2 | -1.78 ± 0.19
GUUCAGCAAUAUUACGAGCA | – | -1.75 ± 0.3
CCAGAGCAAUAUUACGCAGA | -2.8 ± 0.19 | -2.84 ± 0.44
CAUGAGCAAUAUUACGGCGU | -3.61 ± 0.47 | -1.97 ± 0.34
GACAAGCAAUAUUACGUGCA | -0.912 ± 0.06 | 0.0273 ± 0.077
AAGAAGCAAUAUUACGAUGU | -1.29 ± 0.086 | -1.01 ± 0.1
CAUUAGCAAUAUUACGCGGC | -3.98 ± 0.28 | -1.8 ± 0.28
ACUCAGCAAUAUUACGGGAC | -2.72 ± 0.17 | -1.6 ± 0.23
CACGAGCAAUAUUACGGGCU | -4.17 ± 0.22 | -3.5 ± 0.46
GCUAAGCAAUAUUACGAUAC | -1.9 ± 0.12 | -0.355 ± 0.11
CCGGAGCAAUAUUACGCGUC | – | -2.18 ± 0.39
ACGAAGCAAUAUUACGGAUG | -2.82 ± 0.13 | -1.44 ± 0.11
CCUUAGCAAUAUUACGCUUC | -3.71 ± 0.31 | -1.83 ± 0.24
GGAAAGCAAUAUUACGUCCA | -1.37 ± 0.28 | -0.294 ± 0.26
AUAAAGCAAUAUUACGAACG | -0.309 ± 0.082 | -0.0989 ± 0.11
AUCUAGCAAUAUUACGUCUG | -1.72 ± 0.14 | -0.625 ± 0.14
UUUAAGCAAUAUUACGUUGG | -1.45 ± 0.1 | -1.67 ± 0.17
AAGCAGCAAUAUUACGAGAU | -3.14 ± 0.17 | -1.61 ± 0.14
CGUGAGCAAUAUUACGGUUA | -3.15 ± 0.33 | -2.98 ± 0.29
GACGAGCAAUAUUACGGUGU | -4.63 ± 0.45 | -2.64 ± 0.22
AGCGAGCAAUAUUACGGCCG | -2.6 ± 0.34 | -1.72 ± 0.26
CCUGAGCAAUAUUACGCUCG | -2.14 ± 0.43 | -1.7 ± 0.41
UAACAGCAAUAUUACGGUGA | -1.08 ± 0.075 | -0.658 ± 0.082
UCGAAGCAAUAUUACGCUUC | -3.77 ± 0.25 | -2.38 ± 0.3
